What was measured:
Assay in all cases: cell-based or functional assay
Halo-TAL1 (human) = Halo-TAL1 (human) (UniProt P17542)
Halo-LMO2 (human) = Halo-LMO2 (human) (UniProt P25791)
Halo-LYL1 (human) = Halo-LYL1 (human) (UniProt P12980)
Halo-LYL1(F201D) (human) = Halo-LYL1(F201D) (human) (UniProt P12980)
Halo-TAL1(F238D) (human) = Halo-TAL1(F238D) (human) (UniProt P17542)

Chain of UniProt P25791 (P25791 whole entry): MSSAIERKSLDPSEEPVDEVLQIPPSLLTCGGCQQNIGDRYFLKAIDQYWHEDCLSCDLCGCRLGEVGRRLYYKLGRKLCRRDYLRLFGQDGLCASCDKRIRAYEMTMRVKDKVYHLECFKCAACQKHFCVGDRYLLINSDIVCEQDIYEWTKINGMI

Row | Halo-TAL1 t1/2 with HA-LDB1 co-expressed in the presence of LMO2, HaloLife assay (Halo-TAL1 (human)) [h] | Halo-LMO2 t1/2, HaloLife pulse chase in Jurkat cells (6.6 hours without co-expression) (Halo-LMO2 (human)) [h] | Halo-LYL1 t1/2 with HA-LDB1 co-expressed in the presence of LMO2, HaloLife assay (Halo-LYL1 (human)) [h] | Halo-LYL1(F201D) t1/2 with HA-LDB1 co-expressed, HaloLife assay (Halo-LYL1(F201D) (human)) [h] | Halo-TAL1(F238D) t1/2 with HA-LDB1 co-expressed, HaloLife assay (Halo-TAL1(F238D) (human)) [h] | Substance
1 | 19.9 | 20.6 | 20.5 | 3.7 | 10.7 | HA-LDB1 (from UniProt Q86U70 1-375)
2 | – | 4 | – | – | – | HA-LDB1ΔLID (from UniProt Q86U70 1-375)
